Series [1] concerns the molecule itself. The experiment in a line: AUC.
Series [2] deals with the molecule itself. The series is described as follows: thioflavin T fluorescence.

The results in this text go back to article PMC4869717 (ACS chemical biology, 2015).

Positions count from the first letter of the chain named. Names and notes keep the numbering of the source.

B1: emerin fragment from amino acid 1 to amino acid 187 (EmN), wild type, His-tagged (domain or fragment, human, UniProt P50402 1-187, looked up)
chain: MDNYADLSDTELTTLLRRYNIPHGPVVGSTRRLYEKKIFEYETQRRRLSPPSSSAASSYSFSDLNSTRGDADMYDLPKKEDALLYQSKGYNDDYYEESYFTTRTYGEPESAGPSRAVRQSVTSFPDADAFHHQVHDDDLLSSSEEECKDRERPMYGRDSAYQSITHYRPVSASRSSLDLSYYPTSSS
Take B1: the stoichiometry N (in general, a count of units in the complex or per binding partner) in series [1] was 2.

B2: EmN variant S54F (domain or fragment, human, UniProt P50402 1-187, looked up)
chain: B1 chain with S54F
Consider B2, for which the binding result in series [2] is reported as “binds”.

B3: EmN variant P183H (domain or fragment, human, UniProt P50402 1-187, looked up)
chain: B1 chain with P183H
Consider B3, for which the binding result in series [2] is “binds”.

B4: EmN variant Q133H (domain or fragment, human, UniProt P50402 1-187, looked up)
chain: B1 chain with Q133H
B4: in series [2], the binding result is listed as “binds”.

B5: EmN variant P183T (domain or fragment, human, UniProt P50402 1-187, looked up)
chain: B1 chain with P183T
Consider B5, for which the binding result in series [2] was “binds”.

B6: emerin fragment from amino acid 1 to amino acid 187 (EmN), wild type, His-tag cleaved (domain or fragment, human, UniProt P50402 1-187, looked up)
chain: B1 chain
As for B6, the “fold increase in ThT fluorescence intensity at 480 nm” value in series [2] is 10 fold.
